B1: Cyclin-dependent kinase 14 (Homo sapiens), O94921 (parent)
chain: MCDLIEPQPAEKIGKMKKLRRTLSESFSRIALKKDDTTFDEICVTKMSTRNCQGMDSVIKPLDTIPEDKKVRVQRTQSTFDPFEKPANQVKRVHSENNACINFKTSSTGKESPKVRRHSSPSSPTSPKFGKADSYEKLEKLGEGSYATVYKGKSKVNGKLVALKVIRLQEEEGTPFTAIREASLLKGLKHANIVLLHDIIHTKETLTLVFEYVHTDLCQYMDKHPGGLHPDNVKLFLFQLLRGLSYIHQRYILHRDLKPQNLLISDTGELKLADFGLARAKSVPSHTYSNEVVTLWYRPPDVLLGSTEYSTCLDMWGVGCIFVEMIQGVAAFPGMKDIQDQLERIFLVLGTPNEDTWPGVHSLPHFKPERFTLYSSKNLRQAWNKLSYVNHAEDLASKLLQCSPKNRLSAQAALSHEYFSDLPPRLWELTDMSSIFTVPNVRLQPEAGESMRAFGKNNSYGKSLSNSKH
partner: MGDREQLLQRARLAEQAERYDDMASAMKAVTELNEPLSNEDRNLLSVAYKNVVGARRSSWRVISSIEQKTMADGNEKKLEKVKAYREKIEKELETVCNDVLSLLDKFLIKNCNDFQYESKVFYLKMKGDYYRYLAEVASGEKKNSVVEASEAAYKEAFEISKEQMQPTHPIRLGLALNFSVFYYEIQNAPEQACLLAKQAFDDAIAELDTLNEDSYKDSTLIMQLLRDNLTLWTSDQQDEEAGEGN
B2: Cyclin-dependent kinase 14 (Homo sapiens), O94921 (parent)
chain: B1 chain
B3: Cyclin-dependent kinase 14 (Homo sapiens), O94921 (parent)
chain: B1 chain
partner: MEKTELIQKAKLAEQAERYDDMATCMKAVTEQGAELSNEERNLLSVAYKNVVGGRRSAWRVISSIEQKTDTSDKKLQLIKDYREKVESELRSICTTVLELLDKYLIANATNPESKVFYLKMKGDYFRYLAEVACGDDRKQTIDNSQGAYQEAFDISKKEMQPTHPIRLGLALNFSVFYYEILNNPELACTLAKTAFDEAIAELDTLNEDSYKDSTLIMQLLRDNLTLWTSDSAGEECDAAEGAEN

Variants of: B1
Conditions: with 1433f_human YWHAH

Row | effect of a mutation on the interaction | Variant
1 | decreasing interaction | S119A

Variants of: B2
Conditions: with 1433b_human YWHAB

Row | effect of a mutation on the interaction | Variant
2 | decreasing interaction | S119A

Variants of: B2
Conditions: with 1433e_human YWHAE

Row | effect of a mutation on the interaction | Variant
3 | decreasing interaction | S119A

Variants of: B3
Conditions: with 1433t_human YWHAQ

Row | effect of a mutation on the interaction | Variant
4 | decreasing interaction | S119A

Reference: IntAct's records for PubMed 16775625
